Several values for one entry are separate records, joined by “and”; a condition that tells them apart may be missing. Equal entries are not always repeated.
Tests used:
[1] = in vitro; details: CD-1, mouse
Method: (§1) The concentration was calculated using the peak area ratio of analyte and internal […]
(§2) The results were calculated by the following equations:
(§3) % Unbound = 100 *FC / TC, % Bound = 100 * (1-FC / TC)
(§4) % Recovery = 100 * (FC + TC) / T0
(§5) TC = Total compound concentration as determined by the calculated concentration on the retentate side of the membrane
(§6) FC = Free compound concentration as determined by the calculated concentration on the dialysate side of the membrane […]
(§7) Equation of first order kinetics: […]
(§8) 8. Equilibrium dialysis assay. Binding with plasma protein and recovery rate of NHWD-870 were performed with human, CD-1 mouse and SD rat plasma as […]
(§9) described 2. […] The concentration was […]
(§10) calculated using the peak area ratio of analyte and internal standard. The results were calculated by the following equations: % Unbound = 100 *FC / TC, % Bound = 100 * (1-FC / TC); % Recovery = 100 * (FC + TC) / T0; TC = Total compound concentration as determined by the calculated concentration on the retentate side of the membrane; FC = Free compound concentration as determined by the (1 picture or pasted object on this page, not shown here) […]
(§11) calculated concentration on the dialysate side of the membrane; T0 = To t a l compound concentration as determined before dialysis. […]
(§12) 10. hERG channel assay. […]
(§13) HEK293 cell line stably

[2] = in vitro; details: human
Method: as §1, §2, §3, §4, §5, §6, §7, §8, §9, §10, §11, §12, §13

[3] = in vitro; details: SD, rat
Method: as §1, §2, §3, §4, §5, §6, §7, §8, §9, §10, §11, §12, §13

[4] = test system: TAMs; assay: Ki67 FACS of TAMs induced by CSF1; type: cell-based, mouse; details: CSF1 treatment
Method: Flow cytometry analyses were performed using antibodies listed in Supplementary Table 8. For cell surface markers, mouse TAM suspensions were stained with mouse APC-CD45, FITC-CD11b, PE-F4/80 or APC-F4/80, CD68, and PE-CD206 antibodies for 15 min on ice. For Ki67 staining, cells were fixed in 4% paraformaldehyde and stained with FITC-Ki67. Isotype matching antibody served as the negative control. Flow cytometry was performed on a FACSCalibur (BD Biosciences). Data were analyzed with BD CellQuest Pro software version 5.1.
Supplementary Figure 14. NHWD-870 and BRD4 deletion partially inhibite d prolifera tion of TAMs […]
(a) CD45+CD11b+F4/80 + TAMs in the orthotopic B16 melanoma model were harvested from tumors. Shown are representative FACS plots of TAMs. (b,c) Representative FACS plots (b) and quantification (c) of Ki67+ macrophages treated with 50 ng/ml CSF1, and DMSO or 25 or 50 nM NHWD-870. […]
TAMs induced by CSF1. (a-c) CD11b+F4/80+ macrophages in the orthotopic B16F10 melanoma model were harvested from tumor tissues. Shown are representative CD45+, CD11b+, F4/80+ FACS plots (a) and quantification of the percentage of Ki67+ cells after treatment with DMSO or NHWD-870 dependent on CSF1 stimulation (b,c). (d-g) FACS plots and quantification of the percentage of Ki67+ cells after CRISPR/Cas9-mediated BRD4 knockout (d,e) and c-MYC knockout (f,g) in CD11b+F4/80+ macrophages. CSF1 is added at the indicated concentration.
Please also see response to comment # 4 about our 2D assays, in which we used colony number to quantify the number of TAMs.
NHWD-870 treatment and the main differences are colony size.
6. For comparison purposes, it would be a good idea to compare the direct effect of NHWD-870 on in […]
marrow derived macrophage proliferation and gene expression in vitro). […]

[5] = test system: PI3K/AKT1 and ERK phosphorylation; assay: Western blot of p-PI3K, p-AKT1 and p-ERK in TAMs; type: cell-based, mouse
Method: Supplementary Figure 13. NHWD-870 inhibited CSF1/CSF1R signaling pathw ay to reduce TAM […]
TA M s ( 2 ×10^5 cells) (treated with or without 10 ng/ml CSF1 and 100 nM NHWD-870 for 48 h) were seeded into the 6-well bottom chamber, in the presence or absence of A2780 cells (pre-treated with or without 100 nM NHWD-870 for 48 h) seeded into the top chamber (transwell size: 0.4μm). Shown are schematics of the experiment and representative western blot analysis of the indicated proteins (a), and quantification of the relative levels of p-PI3K, p-AKT1 and p-ERK over their respective total protein (b). Data are presented as mean ± SEM from 3 independent experiments. p values were calculated using two-tailed, unpaired t tests. n.s, no significant; **, p<0.01; ***, p<0.001. Source data are provided as a Source Data file. […]
4. Protein extraction and w estern blot anal ysis. Freshly dissected unfixed tissue was homogenized in lysis buffer. The lysates were centrifuged at 13,000g for 10 minutes at 4°C. Supernatants were collected and determined with a Bradford Protein Assay kit (Bio-Rad, Hercules, CA). The cell lysates were subjected to SDS-PAGE followed by immunoblotting (Immobilon P; Millipore, Milford, MA) with specific antibodies followed by detection using an enhanced chemilumine scence kit (Amersham Life Science, Arlington Heights, IL). […]

[6] = test system: TAMs; assay: Transwell co-culture of pretreated A2780 cells and TAMs with CSF1 or anti-CSF1R antibodies; type: cell-based, mouse; details: 10 ng/ml CSF1
Method: (§14) Fig. 6 CSF1/CSF1R signaling is critical for the tumor inhibitory effects of NHWD-870 and CSF1 induced ovarian cancer growth depends on macrophages. a Number of TAMs after treatment with the indicated concentration of CSF1 for 48 h. Data are presented as mean ± SEM from three independent experiments. b–d Schematics of the experiments (b). A2780 cells (pre-treated with DMSO or 100 nM NHWD-870 for 48 h) were seeded into the top chamber (transwell size: 0.4 μm), and TAMs (Mac, 40,000 cells per 24-well) in medium with PBS or 10 ng/ml CSF1 (c), or 50 ng/ml IgG or anti-CSF1R antibodies (d), were seeded into the bottom chamber. Shown are quantification of TAMs (c, d). Data are presented as mean ± SEM from three independent experiments. e Representative western blot analysis of A2780 cells stably transfected with CSF1 or empty vector (EV). Selected from three independent experiments. f Schematics of the animal experiments using an orthotopic mouse OC model, established by intraperitoneally injecting 1 × 10^6 (g–j) or 2 × 10^6 (k–m) human A2780 cells overexpressing CSF1 or control into female recipient nude mice. Mice were then treated with/without liposomal clodronate (LC) for 45 days (g–j) or treated with/without NHWD-870 (PO, QD, 3 mg/kg) for 37 days (k–m). g Increased mouse body weight was measured at the indicated time points (day 0-45 after LC treatment). h–j Net tumor weight (h), ascitic fluid volumes (i) tumor implantations in peritoneum, omentum and pevic cavity (j) were measured at day 45 from LC treatment. k–m Net tumor weight (k), ascitic fluid volumes (l) tumor implantations in peritoneum, omentum and pevic cavity (m) were measured at day 37 after NHWD-870 treatment. For g–m, data are presented as mean ± SEM from five different mice. p values were calculated using two-tailed, unpaired t tests in this figure. n.s, not significant; *p < 0.05; **p < 0.01; and ***p < 0.001. Source data are provided as a Source Data file.
CD45^+CD11b^+F4/80^+ TAMs were isolated from peritoneal metastasis of A2780 tumor-bearing mice and cultured in RPMI-1640 supplemented with 10% FBS, 1% penicillin/streptomycin, and 0–50 ng/ml CSF1 (R&D Systems) as indicated according to standard protocols. In the cancer cell-macrophage co-culture experiments, CSF1 was not added. In the transwell (Corning, pore size, 0.4 μm) co-culture experiments, tumor cells were placed into the upper chamber, and TAMs were seeded into the lower chamber.

[7] = test system: TAMs; assay: Number of TAMs after treatment with CSF1; type: cell-based, mouse
Method: as §14, with “file. […]” for “file.”

[8] = CSF1 treatment, individual replicates, Ctrl about 1

Molecule | recovery [1] [%] | recovery [2] [%] | recovery [3] [%] | fold induction of TAM proliferation [4] [fold] | PI3K/AKT1 and ERK phosphorylation in TAMs ([5]; 10 ng/ml CSF1) | p-AKT1 (Sup Fig.13b quantification) [5, 8] | p-ERK (Sup Fig.13b quantification) [5, 8] | p-PI3K (Sup Fig.13b quantification) [5, 8] | rescue of TAM proliferation in co-culture with NHWD-870 pretreated A2780 cells [6] | proliferation of TAMs ([7]; 48 h) | Number of TAMs (Fig.6a) ([7]; CSF1 10) | Number of TAMs (Fig.6a) ([7]; CSF1 50)
CC(=O)CC(c1ccccc1)c1c(O)c2ccccc2oc1=O (stereo not drawn) [Warfarin, reference compound] | 99.2 | 90.2 | 86.8 |  |  |  |  |  |  |  |  | 
CSF1: macrophage colony-stimulating factor, purchased from R&D Systems (protein, UniProt P09603 33-554, looked up) Macrophage colony-stimulating …: EEVSEYCSHMIGSGHLQSLQRLIDSQMETSCQITFEFVDQEQLKDPVCYLKKAFLLVQDIMEDTMRFRDNTPNAIAIVQLQELSLRLKSCFTKDYEEHDKACVRTFYETPLQLLEKVKNVFNETKNLLDKDWNIFSKNCNNSFAECSSQDVVTKPDCNCLYPKAIPSSDPASVSPHQPLAPSMAPVAGLTWEDSEGTEGSSLLPGEQPLHTVDPGSAKQRPPRSTCQSFEPPETPVVKDSTIGGSPQPRPSVGAFNPGMEDILDSAMGTNWVPEEASGEASEIPVPQGTELSPSRPGGGSMQTEPARPSNFLSASSPLPASAKGQQPADVTGTALPRVGPVRPTGQDWNHTPQKTDHPSALLRDPPEPGSPRISSLRPQGLSNPSTLSAQPQLSRSHSSGSVLPLGELEGRRSTRDRRSPAEPEGGPASEGAARPLPRFNSVPLTDTGHERQSEGSFSPQLQESVFHLLVPSVILVLLAVGGLLFYRWRRRSHQEPQRADSPLEQPEGSPLTQDDRQVELPV |  |  |  | > 10 | induced PI3K/AKT1 and ERK phosphorylation | 7.5 and 6.3 and 5.51 | 3.68 and 4.51 and 5.3 | 3.62 and 4.72 and 3.2 | partially rescue the inhibitory effects of NHWD-870 | increased proliferation of TAMs in a dose-dependent manner | 15.5 and 19.7 and 20.1 | 45.6 and 59.6 and 67.2

— publication PMC7156724, “Potent BRD4 inhibitor suppresses cancer cell-macrophage interaction” (Nature Communications, 2020)
